The text below walks through data of patent EP4574169A1.

Test [1] has as its target ACE2.
In test [2] the target is ACE2. As to the kind of experiment: ratio of ACE2 binding ELISA to Spike RBD detection ELISA; concentrated supernatant of virus-infected Vero cells. On the technique in general: In an ELISA, binding on a coated surface is turned into a signal by an enzyme label.
In test [3] the target is ACE2. The test can be described thus: ACE2 binding detection ELISA (ACE2 on solid phase, detection with anti-spikeRBD antibody); concentrated supernatant of virus-infected Vero cells.

Read-outs that look alike come from different tables or passages of the source.

For “Cov2SPPF (polypeptide B: structure of A with further deletion of the furin cleavage site, R683A R685 (from UniProt P0DTC2 14-1273)”, the ACE2 bind in test [1] came out at 7 ng/mL; in test [3] it was 0.5 ng/mL. The ACE2 bind/ Spike RBD was determined as 0.076 in test [1] and 0.094 in test [2].

In the case of “Cov2STH (polypeptide C: mu-phosphatase leader, extracellular region (ECD) of the spike protein, PP m (from UniProt P0DTC2 16-1213)”, the ACE2 bind in test [1] amounted to 202 ng/mL; in test [3], 19.8 ng/mL. Further, the ACE2 bind/ Spike RBD in test [1] was found to be 2.3; in test [2], 6.5.
